Results published in US20240270846A1 (published 2024).

Target: T1, CD3 epsilon homodimer protein (UniProt P07766 23-126)
T1 construct: construct not described; homodimer as printed; also called CD3 (CD3 epsilon)
Experiment: SPR Biacore T200, CD3 epsilon homodimer immobilized; vs unaltered GLS3000;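 also: antibody variants flowed as analyte over CD3 epsilon homodimer amine-coupled to a CM4 chip, at 25 °C in HBS-EP+ running buffer, fitted with Biacore T200 Evaluation Software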

T1 sequence (P07766 23-126): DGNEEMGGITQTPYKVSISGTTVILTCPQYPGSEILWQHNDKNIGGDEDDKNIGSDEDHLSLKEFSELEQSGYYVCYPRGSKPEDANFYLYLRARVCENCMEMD

B1: GLS3000 L27bF (Kabat) L chain altered form, one-arm antibody with CE115HA000 (antibody, human IgG1, kappa, L234A L235A, N297A, name in Kabat numbering)
heavy: QVQLVESGGGVVQPGRSLRLSCAASGFTFSNAWMHWVRQAPGKGLEWVAQIKAKSNNYATYYAESVKGRFTISRDDSKNSLYLQMNSLKTEDTAVYYCRYVHYGAYYGVDAWGQGTTVTVSSASTKGPSVFPLAPSSKSTSGGTAALGCLVKDYFPEPVTVSWNSGALTSGVHTFPAVLQSSGLYSLSSVVTVPSSSLGTQTYICNVNHKPSNTKVDKKVEPKSCDKTHTCPPCPAPEAAGGPSVFLFPPKPKDTLMISRTPEVTCVVVDVSHEDPEVKFNWYVDGVEVHNAKTKPREEQYASTYRVVSVLTVLHQDWLNGKEYKCKVSNKALPAPIEKTISKAKGQPREPQVYTLPPSRCELTKNQVSLSCAVKGFYPSDIAVEWESNGQPENNYKTTPPVLDSDGSFFLVSKLTVDKSRWQQGNVFSCSVMHEALHNHYTQKSLSLSPDYKDDDDK
chain: EPKSSDKTHTCPPCPAPELLGGPSVFLFPPKPKDTLMISRTPEVTCVVVDVSHEDPEVKFNWYVDGVEVHNAKTKPREEQYNSTYRVVSVLTVLHQDWLNGKEYKCKVSNKALPAPIEKTISKAKGQPREPQVCTLPPSRDELTKNQVSLWCLVKGFYPSDIAVEWESNGQPENNYKTTPPVLDSDGSFFLYSKLTVDKSRWQQGNVFSCSVMHEALHNRYTQKSLSLSP
light: DIVMTQSPLSLPVTPGEPASISCRSSQSFVHSNRNTYLHWYQQKPGQAPRLLIYKVSNRFSGVPDRFSGSGSGTDFTLKISRVEAEDVGVYYCGQGTQVPYTFGQGTKLEIKRTVAAPSVFIFPPSDEQLKSGTASVVCLLNNFYPREAKVQWKVDNALQSGNSQESVTEQDSKDSTYSLSSTLTLSKADYEKHKVYACEVTHQGLSSPVTKSFNRGEC
notes: one-arm antibody
  KD ratio to GLS3000 (Affinity up): 2.67

B2: GLS3000 L27bP (Kabat) L chain altered form, one-arm antibody with CE115HA000 (antibody, human IgG1, kappa, L234A L235A, N297A, name in Kabat numbering)
heavy: QVQLVESGGGVVQPGRSLRLSCAASGFTFSNAWMHWVRQAPGKGLEWVAQIKAKSNNYATYYAESVKGRFTISRDDSKNSLYLQMNSLKTEDTAVYYCRYVHYGAYYGVDAWGQGTTVTVSSASTKGPSVFPLAPSSKSTSGGTAALGCLVKDYFPEPVTVSWNSGALTSGVHTFPAVLQSSGLYSLSSVVTVPSSSLGTQTYICNVNHKPSNTKVDKKVEPKSCDKTHTCPPCPAPEAAGGPSVFLFPPKPKDTLMISRTPEVTCVVVDVSHEDPEVKFNWYVDGVEVHNAKTKPREEQYASTYRVVSVLTVLHQDWLNGKEYKCKVSNKALPAPIEKTISKAKGQPREPQVYTLPPSRCELTKNQVSLSCAVKGFYPSDIAVEWESNGQPENNYKTTPPVLDSDGSFFLVSKLTVDKSRWQQGNVFSCSVMHEALHNHYTQKSLSLSPDYKDDDDK
chain: EPKSSDKTHTCPPCPAPELLGGPSVFLFPPKPKDTLMISRTPEVTCVVVDVSHEDPEVKFNWYVDGVEVHNAKTKPREEQYNSTYRVVSVLTVLHQDWLNGKEYKCKVSNKALPAPIEKTISKAKGQPREPQVCTLPPSRDELTKNQVSLWCLVKGFYPSDIAVEWESNGQPENNYKTTPPVLDSDGSFFLYSKLTVDKSRWQQGNVFSCSVMHEALHNRYTQKSLSLSP
light: DIVMTQSPLSLPVTPGEPASISCRSSQSPVHSNRNTYLHWYQQKPGQAPRLLIYKVSNRFSGVPDRFSGSGSGTDFTLKISRVEAEDVGVYYCGQGTQVPYTFGQGTKLEIKRTVAAPSVFIFPPSDEQLKSGTASVVCLLNNFYPREAKVQWKVDNALQSGNSQESVTEQDSKDSTYSLSSTLTLSKADYEKHKVYACEVTHQGLSSPVTKSFNRGEC
notes: one-arm antibody
  KD ratio to GLS3000 (Affinity up): 0.96

B3: GLS3000 L27bI (Kabat) L chain altered form, one-arm antibody with CE115HA000 (antibody, human IgG1, kappa, L234A L235A, N297A, name in Kabat numbering)
heavy: QVQLVESGGGVVQPGRSLRLSCAASGFTFSNAWMHWVRQAPGKGLEWVAQIKAKSNNYATYYAESVKGRFTISRDDSKNSLYLQMNSLKTEDTAVYYCRYVHYGAYYGVDAWGQGTTVTVSSASTKGPSVFPLAPSSKSTSGGTAALGCLVKDYFPEPVTVSWNSGALTSGVHTFPAVLQSSGLYSLSSVVTVPSSSLGTQTYICNVNHKPSNTKVDKKVEPKSCDKTHTCPPCPAPEAAGGPSVFLFPPKPKDTLMISRTPEVTCVVVDVSHEDPEVKFNWYVDGVEVHNAKTKPREEQYASTYRVVSVLTVLHQDWLNGKEYKCKVSNKALPAPIEKTISKAKGQPREPQVYTLPPSRCELTKNQVSLSCAVKGFYPSDIAVEWESNGQPENNYKTTPPVLDSDGSFFLVSKLTVDKSRWQQGNVFSCSVMHEALHNHYTQKSLSLSPDYKDDDDK
chain: EPKSSDKTHTCPPCPAPELLGGPSVFLFPPKPKDTLMISRTPEVTCVVVDVSHEDPEVKFNWYVDGVEVHNAKTKPREEQYNSTYRVVSVLTVLHQDWLNGKEYKCKVSNKALPAPIEKTISKAKGQPREPQVCTLPPSRDELTKNQVSLWCLVKGFYPSDIAVEWESNGQPENNYKTTPPVLDSDGSFFLYSKLTVDKSRWQQGNVFSCSVMHEALHNRYTQKSLSLSP
light: DIVMTQSPLSLPVTPGEPASISCRSSQSIVHSNRNTYLHWYQQKPGQAPRLLIYKVSNRFSGVPDRFSGSGSGTDFTLKISRVEAEDVGVYYCGQGTQVPYTFGQGTKLEIKRTVAAPSVFIFPPSDEQLKSGTASVVCLLNNFYPREAKVQWKVDNALQSGNSQESVTEQDSKDSTYSLSSTLTLSKADYEKHKVYACEVTHQGLSSPVTKSFNRGEC
notes: one-arm antibody
  KD ratio to GLS3000 (Affinity up): 1.17

B4: GLS3000 L27bM (Kabat) L chain altered form, one-arm antibody with CE115HA000 (antibody, human IgG1, kappa, L234A L235A, N297A, name in Kabat numbering)
heavy: QVQLVESGGGVVQPGRSLRLSCAASGFTFSNAWMHWVRQAPGKGLEWVAQIKAKSNNYATYYAESVKGRFTISRDDSKNSLYLQMNSLKTEDTAVYYCRYVHYGAYYGVDAWGQGTTVTVSSASTKGPSVFPLAPSSKSTSGGTAALGCLVKDYFPEPVTVSWNSGALTSGVHTFPAVLQSSGLYSLSSVVTVPSSSLGTQTYICNVNHKPSNTKVDKKVEPKSCDKTHTCPPCPAPEAAGGPSVFLFPPKPKDTLMISRTPEVTCVVVDVSHEDPEVKFNWYVDGVEVHNAKTKPREEQYASTYRVVSVLTVLHQDWLNGKEYKCKVSNKALPAPIEKTISKAKGQPREPQVYTLPPSRCELTKNQVSLSCAVKGFYPSDIAVEWESNGQPENNYKTTPPVLDSDGSFFLVSKLTVDKSRWQQGNVFSCSVMHEALHNHYTQKSLSLSPDYKDDDDK
chain: EPKSSDKTHTCPPCPAPELLGGPSVFLFPPKPKDTLMISRTPEVTCVVVDVSHEDPEVKFNWYVDGVEVHNAKTKPREEQYNSTYRVVSVLTVLHQDWLNGKEYKCKVSNKALPAPIEKTISKAKGQPREPQVCTLPPSRDELTKNQVSLWCLVKGFYPSDIAVEWESNGQPENNYKTTPPVLDSDGSFFLYSKLTVDKSRWQQGNVFSCSVMHEALHNRYTQKSLSLSP
light: DIVMTQSPLSLPVTPGEPASISCRSSQSMVHSNRNTYLHWYQQKPGQAPRLLIYKVSNRFSGVPDRFSGSGSGTDFTLKISRVEAEDVGVYYCGQGTQVPYTFGQGTKLEIKRTVAAPSVFIFPPSDEQLKSGTASVVCLLNNFYPREAKVQWKVDNALQSGNSQESVTEQDSKDSTYSLSSTLTLSKADYEKHKVYACEVTHQGLSSPVTKSFNRGEC
notes: one-arm antibody
  KD ratio to GLS3000 (Affinity up): 1.31
